The text below walks through data of US20230279123A1.

Assay [1] has as its target IL-4Rα (receptor protein / antigen) (UniProt P24394). Kind of assay: competition ELISA: IL-4Rα coated, biotin-IL-4 at EC80 mixed with antibody dilutions, OD450; hIgG is the control, the fitted value may be meaningless. For orientation: An ELISA detects its analyte on a solid surface through an enzyme-linked reagent.
The target in a further assay is IL-4Rα (on TF-1 cells) (UniProt P24394). In words: cell-based or functional assay.

A word on the pEC50: it is −log10 of the EC50, conventionally taken in molar units. A lower pEC50 goes with a high EC50.

pEC50: −log10 of the molar value.

As for hIgG (antibody), the negative logarithm of the EC50 (pEC50) in assay [1] is 8.69. Regarding dupilumab (antibody), in the assay with IL-4Rα (on TF-1 cells), the EC50 of neutralizing IL-4-induced TF-1 cell proliferation came out at 130 pM and the EC50 of neutralizing IL-13-induced TF-1 cell proliferation worked out at 178 pM.
